From patent publication US20200277377A1 (WUXI BIOLOGICS SHANGHAI, published 2020)
Substitutions are numbered along the chain they refer to. Values belong to the binder of their own block, whether it stands above or below them.

Experiments:
[1] = target: T1, full length human CTLA-4 on cells (human, UniProt P16410 36-223); assay: FACS on human CTLA4 expression 293F cell line
T1 construct: whole, on cells; also called CTLA-4-expressing cell line
T1 sequence (looked up): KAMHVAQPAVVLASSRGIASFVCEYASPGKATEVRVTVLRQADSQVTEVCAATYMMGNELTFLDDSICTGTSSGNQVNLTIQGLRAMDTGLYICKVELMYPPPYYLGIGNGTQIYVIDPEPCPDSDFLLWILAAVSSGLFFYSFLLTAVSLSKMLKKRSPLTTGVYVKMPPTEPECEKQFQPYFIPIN
Protocol: A number of 1×10⁵ cells per well was added to each well of a 96-well plate and centrifuged at 1500 rpm for 4 minutes at 4° C. before removing the supernatant. Serial dilutions of test antibodies, positive and negative controls were added to the resuspended cells and incubated for 1 hour at 4° C. The cells were washed two times with 200 μL DPBS containing 1% BSA. PE conjugated goat anti-human IgG (1:100) diluted in DPBS containing 1% BSA was added to the cells and incubated at 4° C. for 1 hour. Additional washing steps were performed two times with 200 μL DPBS containing 1% BSA followed by centrifugation at 1500 rpm for 4 minutes at 4° C. Finally, the cells were resuspended in 100 μL DPBS containing 1% BSA and fluorescence values were measured by flow cytometry and analyzed by FlowJo.

[2] = target: T2, hCTLA4_ECD.His point mutant V40 to alanine (human, UniProt P16410 36-161); assay: capture ELISA, alanine scan, vs silent alanine substitutions
T2 construct: extracellular domain; alanine-scan mutein, HEK293F supernatant
T2 sequence (looked up): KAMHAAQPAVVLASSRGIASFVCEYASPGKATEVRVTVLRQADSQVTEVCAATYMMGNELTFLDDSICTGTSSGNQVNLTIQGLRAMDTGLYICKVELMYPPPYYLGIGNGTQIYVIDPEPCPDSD
Protocol: (§1) In order to test how the mutations affect antibody-binding, a capture ELISA was conducted. […] After interacting with the supernatant that contains quantified CTLA4 muteins, HRP conjugated anti-His antibody (1:5000; Rockland Immunochemicals, Pottstown, Pa.) was added as detection antibody. TMB was used as substance of HRP. Absorbance was normalized according to the average of control mutants. After setting an additional cutoff to the binding fold change (<0.55), the final determined epitope residues were identified.

[3] = target: T3, hCTLA4_ECD.His point mutant Y60 to alanine (human, UniProt P16410 36-161); assay: as above
T3 construct: extracellular domain; alanine-scan mutein, HEK293F supernatant
T3 sequence (looked up): T2 sequence (looked up) with A5V, Y25A
Protocol: as §1

[4] = target: T4, hCTLA4_ECD.His point mutant A66 to glycine (human, UniProt P16410 36-161); assay: as above
T4 construct: extracellular domain; alanine-scan mutein (alanine residues were mutated to glycine), HEK293F supernatant
T4 sequence (looked up): T2 sequence (looked up) with A5V, A31G
Protocol: as §1

[5] = target: T5, hCTLA4_ECD.His point mutant R70 to alanine (human, UniProt P16410 36-161); assay: as above
T5 construct: extracellular domain; alanine-scan mutein, HEK293F supernatant
T5 sequence (looked up): T2 sequence (looked up) with A5V, R35A
Protocol: as §1

[6] = target: T6, hCTLA4_ECD.His point mutant R75 to alanine (human, UniProt P16410 36-161); assay: as above
T6 construct: extracellular domain; alanine-scan mutein, HEK293F supernatant
T6 sequence (looked up): T2 sequence (looked up) with A5V, R40A
Protocol: as §1

[7] = target: T7, hCTLA4_ECD.His point mutant E83 to alanine (human, UniProt P16410 36-161); assay: as above
T7 construct: extracellular domain; alanine-scan mutein, HEK293F supernatant
T7 sequence (looked up): T2 sequence (looked up) with A5V, E48A
Protocol: as §1

[8] = target: T8, hCTLA4_ECD.His point mutant I149 to alanine (human, UniProt P16410 36-161); assay: as above
T8 construct: extracellular domain; alanine-scan mutein, HEK293F supernatant
T8 sequence (looked up): T2 sequence (looked up) with A5V, I114A
Protocol: as §1

[9] = target: T9, cynomolgus monkey CTLA-4 ECD-6×His (cynomolgus monkey); assay: SPR, antibody captured on anti-human Fc, CTLA-4.ECD-6×His as analyte, 1:1 fit
T9 construct: extracellular domain; Bought; also called cynomoguls monkey CTLA-4.ECD-6×His
Protocol: Biacore T200, Series S Sensor Chip CMS, Amine Coupling Kit, and 10×HBS-EP were purchased from GE Healthcare. […] In immobilization step, the activation buffer was prepared by mixing 400 mM EDC and 100 mM NHS immediately prior to injection. The CM5 sensor chip was activated for 420 s with the activation buffer. 30 μg/mL of goat anti-human IgG Fcγ antibody in 10 mM NaAc (pH 4.5) was then injected to Fc1-Fc4 channels for 200 s at a flow rate of 5 μL/min. The chip was deactivated by 1 M ethanolamine-HCl (GE). Then the antibodies were captured on the chip. Briefly, 4 μg/mL antibodies in running buffer (HBS-EP+) was injected individually to Fc3 channel for 30 s at a flow rate of 10 μL/min. […] Regeneration buffer (10 mM Glycine pH 1.5) was injected at 10 μL/min for 30 s following every dissociation phase.
The binding kinetics of these antibodies were measured using SPR. The antibodies were captured on immobilized anti-human Fc and CTLA-4-ECD at different concentration was injected orderly. The sensorgrams for reference channel and buffer channel were subtracted from the test sensorgrams. The data was used for 1:1 binding analysis on human, monkey and mouse CTLA-4.ECD-6×His.

- EC50 [1]: 1.58 nM
- Fold change [2]: 0.181 fold
- Fold change [3]: 0.223 fold
- Fold change [4]: 0.395 fold
- Fold change [5]: 0.507 fold
- Fold change [6]: 0.278 fold
- Fold change [7]: 0.405 fold
- Fold change [8]: 0.183 fold
- Kd [9]: 1.92 nM
- koff [9]: 0.000331 s⁻¹
- kon [9]: 173000 M⁻¹ s⁻¹
B1: W3162-1.146.19-z12-uAb.IgG1K (antibody, V domains shown)
VH: QVQLQESGPGLVKPSETLSLTCSVTYHTITSGYDWTWIRKPPGKGMEWIGYISYSGNTNYNPSLKSRVTISRDTSKNQFFLKLSSVTAADTAVYYCASMMVPHYYVMDAWGQGTLVTVSS
VL: DIVMTQTPLSLSVTPGQPASISCRSSQSLLNSDGNTYLYWYLQKPGQSPQLLIYLVSKLGSGVPNRFSGSGSGTDFTLKISRVEAEDVGVYYCVQGTHDPWTFGGGTKVEIK
notes: Humanized; label says IgG1K

- EC50 [1]: 0.66 nM
- Fold change [2]: 0.187 fold
- Fold change [3]: 0.24 fold
- Fold change [4]: 0.519 fold
- Fold change [5]: 0.515 fold
- Fold change [6]: 0.298 fold
- Fold change [7]: 0.479 fold
- Fold change [8]: 0.319 fold
- Kd [9]: 0.131 nM
- koff [9]: 0.000122 s⁻¹
- kon [9]: 932000 M⁻¹ s⁻¹
B2: W3162_1.154.8-z35-uAb.IgG1K (antibody, V domains shown)
VH: QVQLVQSGAEVKKPGSSVKVSCKASGYTFTNYFMNWVRQAPGQGLEWMGRVDPEQGRADYAEKFKKRVTITADKSTSTAYMELSSLRSEDTAVYYCARRAMDNYGFAYWGQGTLVTVSS
VL: EIVLTQSPDFQSVTPKEKVTITCSANSALSYMYWYQQKPDQSPKLWVHGTSNLASGVPSRFSGSGSGTDFTLTINSLEAEDAATYYCHHWSNTQWTFGGGTKVEIK
notes: Humanized; label says IgG1K
